The target in this test is T1, human LRP6 construct E1 (amino acids A20-D325) (human, UniProt O75581 20-325).
T1 construct: range 20-325; In the Fab crystal E1 arose from E1E2 degraded beyond Arg 335; residues Ala20 to Lys324 were traced; also called LRP6 E1; E1 domain
T1 sequence (looked up): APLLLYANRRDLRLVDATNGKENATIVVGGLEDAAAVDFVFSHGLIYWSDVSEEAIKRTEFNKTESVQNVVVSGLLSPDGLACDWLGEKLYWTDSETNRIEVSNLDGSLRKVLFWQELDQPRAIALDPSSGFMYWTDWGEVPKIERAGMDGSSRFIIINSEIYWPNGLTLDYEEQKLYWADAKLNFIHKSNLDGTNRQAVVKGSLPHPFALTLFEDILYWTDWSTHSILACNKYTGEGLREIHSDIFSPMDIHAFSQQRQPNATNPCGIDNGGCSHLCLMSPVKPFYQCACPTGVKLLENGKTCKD
The experiment in a line: synthetic peptides, competition IC50 (FIG. 18).

Non-standard residues stand in square brackets, D forms with d. NMeI = CC[C@H](C)[C@H](NC)C(=O)O; NMeK = CN[C@@H](CCCCN)C(=O)O; NMeS = CN[C@@H](CO)C(=O)O

B1: Ac-NSIKGY-am with an Nα-methyl amino acid at the K position (peptide)
peptide: Ac-NSI[NMeK]GY-NH2
SMILES: CC[C@H](C)[C@H](NC(=O)[C@H](CO)NC(=O)[C@H](CC(N)=O)NC(C)=O)C(=O)N(C)[C@@H](CCCCN)C(=O)NCC(=O)N[C@@H](Cc1ccc(O)cc1)C(N)=O
For B1, the binding result is listed as “no binding”.

B2: Ac-NSIKGY-am with an Nα-methyl amino acid at the S position (peptide)
peptide: Ac-N[NMeS]IKGY-NH2
SMILES: CC[C@H](C)[C@H](NC(=O)[C@H](CO)N(C)C(=O)[C@H](CC(N)=O)NC(C)=O)C(=O)N[C@@H](CCCCN)C(=O)NCC(=O)N[C@@H](Cc1ccc(O)cc1)C(N)=O
B2: the binding result was “no binding”.

B3: Ac-NSIKGY-am with an Nα-methyl amino acid at the I position (peptide)
peptide: Ac-NS[NMeI]KGY-NH2
SMILES: CC[C@H](C)[C@@H](C(=O)N[C@@H](CCCCN)C(=O)NCC(=O)N[C@@H](Cc1ccc(O)cc1)C(N)=O)N(C)C(=O)[C@H](CO)NC(=O)[C@H](CC(N)=O)NC(C)=O
In the case of B3, the binding result is “no binding”.

B4: Ac-NSIKGY-am (peptide)
peptide: Ac-NSIKGY-NH2
notes: also called minimized analogue of the Dkk1 peptide; Lys parent
On to B4, for which the binding result is listed as “binds”.

Take Ac-NSEKGY-NH2 [Ac-NSIKGY-am with Glu in place of Ile]: the binding result is “no binding”.

With Ac-QSIKGY-NH2 [Ac-NSIKGY-am with Gln in place of Asn], the binding result was “no binding”.
